# Values of other authors as cited in publication PMC8438204, “Unraveling the Thermodynamics of Ultra-tight Binding of Intrinsically Disordered Proteins” (Frontiers in Molecular Biosciences, 2021).
# Biological target: prothymosin α (Homo sapiens) (UniProt P06454)
# Sequence (P06454 2-111): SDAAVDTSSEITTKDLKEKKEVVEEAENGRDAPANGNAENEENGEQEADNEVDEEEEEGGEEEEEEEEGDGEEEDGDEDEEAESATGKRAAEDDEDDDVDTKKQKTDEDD
# Sequence of histone H1 (P07305 2-194): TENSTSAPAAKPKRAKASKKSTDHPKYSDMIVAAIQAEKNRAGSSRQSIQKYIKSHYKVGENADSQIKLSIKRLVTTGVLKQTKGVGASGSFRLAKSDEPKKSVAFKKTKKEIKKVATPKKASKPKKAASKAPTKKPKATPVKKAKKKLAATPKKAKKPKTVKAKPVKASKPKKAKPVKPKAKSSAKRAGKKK
substance,measurement,value
histone H1 (from UniProt P07305),Kd,2 pM
